Data: patent publication US20200277385A1 (LABORATOIRE FRANCAIS DU FRACTIONNEMENT ET DES …, published 2020)

B1: chimeric antibody 102E9 (antibody, human IgG1, kappa)
heavy: not shown
light: QIVLTQSPAIMSASPGEKVTITCSASSSVIYIHWFQQKPGTSPKLWIYSTSYLASGVPARFSGSGSGTSYSLTISRMEAEDAATYYCQQRRSYPFTFGGGTKLEIKRTVAAPSVFIFPPSDEQLKSGTASVVCLLNNFYPREAKVQWKVDNALQSGNSQESVTEQDSKDSTYSLSSTLTLSKADYEKHKVYACEVTHQGLSSPVTKSFNRGEC
notes: also called ch.102E9
B2: chimeric antibody 122A2 (antibody, human IgG1, kappa)
heavy: not shown
light: DIQMTQTTSSLSASLGDRVTISCRASQDISNYLNWYQQKPDGTVKLLIYYTSRLHSGVPSRFSGSGSGTDYSLTISNLDQEDIATYFCQQGNTLPWTFGGGTKLEIKRTVAAPSVFIFPPSDEQLKSGTASVVCLLNNFYPREAKVQWKVDNALQSGNSQESVTEQDSKDSTYSLSSTLTLSKADYEKHKVYACEVTHQGLSSPVTKSFNRGEC
notes: also called ch.122A2; ch122A2

What was measured:
[1] = target: T1, human CD303 antigen expressed on cells (human, UniProt Q8WTT0 1-213); test: flow cytometry on CAL-1 cells (experiment with BIIB059)
T1 construct: On Fcγ chain-CD303 Jurkat cells, CAL-1 cells, and CAL-1 cells transfected with a CD303 expression vector; also called BDCA-2; BDCA2
T1 sequence: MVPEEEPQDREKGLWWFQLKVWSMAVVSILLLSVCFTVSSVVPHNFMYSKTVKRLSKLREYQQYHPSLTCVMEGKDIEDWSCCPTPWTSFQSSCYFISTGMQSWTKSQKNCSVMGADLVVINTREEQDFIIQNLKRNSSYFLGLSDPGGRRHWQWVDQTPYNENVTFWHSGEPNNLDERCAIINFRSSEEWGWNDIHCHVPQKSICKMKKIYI
Protocol: (§1) The CD303-expressing cells and the antibodies are prepared in diluent (PBS+1% FCS). 1·10⁵ cells are incubated at 4° C. for 30 minutes with 100 μL of antibody (anti-CD303 or negative control) at various concentrations (0-40 μg/mL, final concentration).
(§2) After washing with the diluent, the antibodies are visualized by addition of a phycoerythrin (PE)-coupled goat anti-mouse IgG F(ab′)₂ fragment (100 μL diluted to 1:100 in the diluent) for 45 minutes at 4° C. The cells are then washed and analyzed by flow cytometry (FC500, Beckman Coulter).

[2] = target: T1, human CD303 antigen expressed on cells; test: flow cytometry on CAL-1 cells
Protocol: as §1, §2

[3] = target: T1, human CD303 antigen expressed on cells; test: cell-based or functional assay
[4] = target: T1, human CD303 antigen expressed on cells; test: cell-based or functional assay; remark: listed apart in the source
FcγRIIIa (CD16a) [5] = target: T2, FcγRIIIa (CD16a) (UniProt P08637 17-254, limits assumed); test: competition with 3G8-PE for CD16 on NK cells, flow cytometry (second experiment)
T2 construct: whole, on cells; also called Fcγ receptor III
T2 sequence (P08637 17-254 limits assumed): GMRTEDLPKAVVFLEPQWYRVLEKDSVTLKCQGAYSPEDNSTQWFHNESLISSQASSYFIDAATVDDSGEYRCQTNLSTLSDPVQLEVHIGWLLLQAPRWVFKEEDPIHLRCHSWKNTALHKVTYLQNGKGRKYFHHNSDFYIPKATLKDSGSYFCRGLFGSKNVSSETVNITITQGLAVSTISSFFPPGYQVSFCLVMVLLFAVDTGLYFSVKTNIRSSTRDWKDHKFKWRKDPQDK

FcγRIIIa (CD16a) [6] = target: T2, FcγRIIIa (CD16a); test: competition with 3G8-PE for CD16 on NK cells, flow cytometry
[7] = target: T1, human CD303 antigen expressed on cells; test: flow cytometry on Fcγ chain-CD303 Jurkat cells
Protocol: as §1, §2

[8] = target: T1, human CD303 antigen expressed on cells; test: flow cytometry on CAL-1 cells transfected with CD303 (about 40,000-50,000 CD303/cell)
Protocol: as §1, §2

[9] = target: T1, human CD303 antigen expressed on cells; test: cell-based or functional assay; remark: listed apart in the source

Binder	EC50 [1]	Bmax (MFI) [2]	EC50 [2]	ADCC EC50, CAL-1 target cells [3]	ADCC EC50, Fcγ chain-CD303 Jurkat target cells with NK cells [4]	ADCC Emax (% lysis), Fcγ chain-CD303 Jurkat target cells with NK cells [4]	IC50 (FcγRIIIa (CD16a) [5])	IC50 (FcγRIIIa (CD16a) [6])	Bmax (MFI) [7]	EC50 [7]	EC50 [8]	IC50 for IFN-α secretion from pDCs contained in PBMCs [9]
B1	0.44 µg/mL	30.5 MFI	1.81 µg/mL	0.0038 µg/mL	0.00342 µg/mL	38.9 % lysis	13 µg/mL	37 µg/mL	24.9 MFI	3.87 µg/mL	0.363 µg/mL	
B2	0.06 µg/mL	25.2 MFI	0.207 µg/mL	0.00093 µg/mL	0.000159 µg/mL	42.4 % lysis	13 µg/mL	40.4 µg/mL	26.2 MFI	0.128 µg/mL	0.142 µg/mL	0.959 ng/mL
